Assay results reported in US9580731B2, “Methods of producing 7-carbon chemicals via c1 carbon chain elongation associated with coenzyme B synthesis” (INVISTA North America S.á r.l., priority 2012, dated 2017).

Legend:
Type in all cases: biochemical
[1] = Carboxylate reductase activity assay, pimelate to pimelate semialdehyde (NADPH consumption); settings: 2 mM pimelate, enhanced by gene product of sfp, room temperature, 20 min, against empty vector control, FIG. 10
Procedure: A sequence encoding a HIS-tag was added to the genes from Segniliparus rugosus and Segniliparus rotundus that encode the carboxylate reductases of SEQ ID NOs: 4 and 7, respectively (see FIG. 7), such that N-terminal HIS tagged carboxylate reductases could be produced. Each of the modified genes was cloned into a pET Duet expression vector along with a sfp gene encoding a HIS-tagged phosphopantetheine transferase from Bacillus subtilis, both under the T7 promoter. Each expression vector was transformed into a BL21[DE3] E. coli host and the resulting recombinant E. coli strains were cultivated at 37° C. in a 250 mL shake flask culture containing 50 mL LB media and antibiotic selection pressure, with shaking at 230 rpm. Each culture was induced overnight at 37° C. using an auto-induction media.
The pellet from each induced shake flask culture was harvested via centrifugation. Each pellet was resuspended and lysed via sonication, and the cell debris was separated from the supernatant via centrifugation. […]
Enzyme activity assays (i.e., from pimelate to pimelate semialdehyde) were performed in triplicate in a buffer composed of a final concentration of 50 mM HEPES buffer (pH=7.5), 2 mM pimelate, 10 mM MgCl2, 1 mM ATP and 1 mM NADPH. […] The consumption of NADPH was monitored by absorbance at 340 nm.

[2] = Carboxylate reductase activity assay, pimelate semialdehyde to heptanedial (NADPH consumption); settings: 2 mM pimelate semialdehyde, enhanced by gene product of sfp, room temperature, 20 min, against empty vector control, FIG. 13
Procedure: The N-terminal His-tagged carboxylate reductase of SEQ ID NO 7 (see Example 4 and FIG. 7) was assayed using pimelate semialdehyde as substrate. The enzyme activity assay was performed in triplicate in a buffer composed of a final concentration of 50 mM HEPES buffer (pH=7.5), 2 mM pimelate semialdehyde, 10 mM MgCl2, 1 mM ATP and 1 mM NADPH. The enzyme activity assay reaction was initiated by adding purified carboxylate reductase and phosphopantetheine transferase or the empty vector control to the assay buffer containing the pimelate semialdehyde and then incubated at room temperature for 20 min. The consumption of NADPH was monitored by absorbance at 340 nm.

[3] = Carboxylate reductase activity assay, N7-acetyl-7-aminoheptanoate to N7-acetyl-7-aminoheptanal (NADPH consumption); settings: 2 mM N7-acetyl-7-aminoheptanoate, enhanced by gene product of sfp, room temperature, 20 min, against empty vector control, FIG. 12
Procedure: The activity of each of the N-terminal His-tagged carboxylate reductases of SEQ ID NOs: 3, 6, and 7 (see Examples 4, and FIG. 7) for converting N7-acetyl-7-aminoheptanoate to N7-acetyl-7-aminoheptanal was assayed in triplicate in a buffer composed of a final concentration of 50 mM HEPES buffer (pH=7.5), 2 mM N7-acetyl-7-aminoheptanoate, 10 mM MgCl2, 1 mM ATP, and 1 mM NADPH. The assays were initiated by adding purified carboxylate reductase and phosphopantetheine transferase or the empty vector control to the assay buffer containing the N7-acetyl-7-aminoheptanoate then incubated at room temperature for 20 min. The consumption of NADPH was monitored by absorbance at 340 nm.

B1: SEQ ID NO 7: Segniliparus rotundus carboxylate reductase, Genbank Accession No. ADG98140.1 (protein, listed as Segniliparus rotundus)
chain: MTQSHTQGPQASAAHSRLARRAAELLATDPQAAATLPDPEVVRQATRPGLRLAERVDAILSGYADRPALGQRSFQTVKDPITGRSSVELLPTFDTITYRELRERATAIASDLAHHPQAPAKPGDFLASIGFISVDYVAIDIAGVFAGLTAVPLQTGATLATLTAITAETAPTLFAASIEHLPTAVDAVLATPSVRRLLVFDYRAGSDEDREAVEAAKRKIADAGSSVLVDVLDEVIARGKSAPKAPLPPATDAGDDSLSLLIYTSGSTGTPKGAMYPERNVAHFWGGVWAAAFDEDAAPPVPAINITFLPLSHVASRLSLMPTLARGGLMHFVAKSDLSTLFEDLKLARPTNLFLVPRVVEMLYQHYQSELDRRGVQDGTREAEAVKDDLRTGLLGGRILTAGFGSAPLSAELAGFIESLLQIHLVDGYGSTEAGPVWRDGYLVKPPVTDYKLIDVPELGYFSTDSPHPRGELAIKTQTILPGYYKRPETTAEVFDEDGFYLTGDVVAQIGPEQFAYVDRRKNVLKLSQGEFVTLAKLEAAYSSSPLVRQLFVYGSSERSYLLAVIVPTPDALKKFGVGEAAKAALGESLQKIARDEGLQSYEVPRDFIIETDPFTVENGLLSDARKSLRPKLKEHYGERLEAMYKELADGQANELRDIRRGVQQRPTLETVRRAAAAMLGASAAEIKPDAHFTDLGGDSLSALTFSNFLHDLFEVDVPVGVIVSAANTLGSVAEHIDAQLAGGRARPTFATVHGKGSTTIKASDLTLDKFIDEQTLEAAKHLPKPADPPRTVLLTGANGWLGRFLALEWLERLAPAGGKLITIVRGKDAAQAKARLDAAYESGDPKLAGHYQDLAATTLEVLAGDFSEPRLGLDEATWNRLADEVDFISHPGALVNHVLPYNQLFGPNVAGVAEIIKLAITTRIKPVTYLSTVAVAAGVEPSALDEDGDIRTVSAERSVDEGYANGYGNSKWGGEVLLREAHDRTGLPVRVFRSDMILAHQKYTGQVNATDQFTRLVQSLLATGLAPKSFYELDAQGNRQRAHYDGIPVDFTAESITTLGGDGLEGYRSYNVFNPHRDGVGLDEFVDWLIEAGHPITRIDDYDQWLSRFETSLRGLPESKRQASVLPLLHAFARPGPAVDGSPFRNTVFRTDVQKAKIGAEHDIPHLGKALVLKYADDIKQLGLL
- carboxylate reductase activity for converting pimelate to pimelate semialdehyde (NADPH consumption, absorbance at 340 nm) [1]: accepted pimelate as substrate
- carboxylate reductase activity for converting pimelate semialdehyde to heptanedial (NADPH consumption, absorbance at 340 nm) [2]: accepted pimelate semialdehyde as substrate
- carboxylate reductase activity for converting N7-acetyl-7-aminoheptanoate to N7-acetyl-7-aminoheptanal (NADPH consumption, absorbance at 340 nm) [3]: accepted N7-acetyl-7-aminoheptanoate as substrate
